Patent US20210054078A1

Legend:
[1] = target: Human PD-L1-HisTag (#10084-H08H, Sino Biological Inc.) (human) (UniProt Q9NZQ7); experiment: ELISA, scFv phage supernatant on coated His-tag PD-L1, anti-M13-HRP
[2] = target: Mouse PD-L1-HisTag (#50010-M08H, Sino Biological Inc.) (mouse) (UniProt Q9EP73); experiment: as above
[3] = target: human PD-L1 on hPD-L1/CHO-K1 overexpressing cells (human) (UniProt Q9NZQ7); experiment: flow cytometry, scFv phage supernatant on hPD-L1/CHO-K1 cells
[4] = target: human PD-L1 (soluble protein of the kinetic measurements) (human) (UniProt Q9NZQ7); experiment: dissociation rate constant of scFv phage clone, method not named
human PD-L1 (soluble protein of the kinetic measurements) (human), sequence (Q9NZQ7 19-238 limits assumed): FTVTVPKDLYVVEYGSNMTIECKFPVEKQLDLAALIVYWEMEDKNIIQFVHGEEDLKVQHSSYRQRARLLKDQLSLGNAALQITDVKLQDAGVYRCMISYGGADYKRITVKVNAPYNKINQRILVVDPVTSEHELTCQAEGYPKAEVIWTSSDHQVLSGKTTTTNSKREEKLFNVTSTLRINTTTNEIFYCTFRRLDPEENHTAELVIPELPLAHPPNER

[5] = target: mouse PD-L1 (soluble protein of the kinetic measurements) (mouse) (UniProt Q9EP73); experiment: as above
mouse PD-L1 (soluble protein of the kinetic measurements) (mouse), sequence (Q9EP73 19-238 limits assumed): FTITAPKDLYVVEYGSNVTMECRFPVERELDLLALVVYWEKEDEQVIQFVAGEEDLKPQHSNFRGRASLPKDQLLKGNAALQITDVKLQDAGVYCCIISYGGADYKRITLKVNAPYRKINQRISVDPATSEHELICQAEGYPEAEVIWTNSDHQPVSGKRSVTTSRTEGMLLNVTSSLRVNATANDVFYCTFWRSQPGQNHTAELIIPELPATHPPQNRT

human PD-L1 on hPD-L1/CHO-K1 overexpressing cells (human), sequence (Q9NZQ7 19-290): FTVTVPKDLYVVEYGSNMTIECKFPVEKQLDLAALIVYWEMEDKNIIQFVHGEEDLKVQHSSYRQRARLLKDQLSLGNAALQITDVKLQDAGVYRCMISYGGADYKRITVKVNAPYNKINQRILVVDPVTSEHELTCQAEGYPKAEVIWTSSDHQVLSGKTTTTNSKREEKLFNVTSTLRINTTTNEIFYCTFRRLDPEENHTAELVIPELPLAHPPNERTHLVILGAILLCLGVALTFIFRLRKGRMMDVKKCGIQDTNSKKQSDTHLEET
Human PD-L1-HisTag (#10084-H08H, Sino Biological Inc.) (human), sequence (Q9NZQ7 19-238 limits assumed): as the sequence (Q9NZQ7 19-238 limits assumed) above
Mouse PD-L1-HisTag (#50010-M08H, Sino Biological Inc.) (mouse), sequence (Q9EP73 19-238 limits assumed, stated change not applied): as the sequence (Q9EP73 19-238 limits assumed) above

B1: 1G1 scFv phage clone (scFv, V domains shown, part only)
VH: QVQLVESGGGLVQPGRSLRLSCAASGFTFDDYAMHWVRQAPGKGLEWVSGISWNSGSIGYADSVKGRFTISRDNAKNSLYLQMNSLRAEDTAVYYCAKPRDISSWLGMDVWGQGTTVTVSS
VL: DIQMTQSPSSVSASVGDRVTITCRASQDISSWLAWYQQKPGKAPKLLIYAASSLQSGVPSRFSGSGSGTDFTLTISSLQPEDSATYYCQQTNNFPYTFGQGTKLEIKR
modifications: scFv linker not given; phage display
[1]
  OD450-630: 1.38
[2]
  OD450-630: 0.35
[3]
  % Gated in M1: 99.4%
  Geo Mean in M1: 184
  Geo Mean, all events: 181
  Mean in M1: 248
  Mean, all events: 246
[4]
  koff: 0.000152 s⁻¹

B2: 1G1.E12 scFv phage clone (scFv, V domains shown, part only)
VH: QVQLVESGGGLVQPGRSLRLSCAASGFTFDDYAMHWVRQAPGKGLEWVSGISWNSGSIGYADSVKGRFTISRDNAKNSLYLQMNSLRAEDTAVYYCAKPRDISSWLGMDVWGQGTTVTVSS
VL: DIQMTQSPSSVSASVGDRVTITCRASQDISSWLAWYQQKPGKAPKLLIYAASSLQSGVPSRFSGSGSGTDFTLTISSLQPEDSATYYCQQTVTFPYTFGQGTKLEIKR
modifications: scFv linker not given
[4]
  koff: 0.000268 s⁻¹

B3: ME4 scFv phage clone (scFv, V domains shown, part only)
VH: QVQLVESGAEVKKPGSSVKVSCKASGGTFNNYAVSWVRQAPGQGLEWMGRIIPILGIANYAQTFQGRVTITADKSTTTAYMELSSLRSEDTAVYYCARSYSGYAEGAFDIWGQGTMVTVSS
VL: QFVLTQPPSVSGAPGQRVTISCTGSSSNIGAGYDVHWYQQLPGTAPKVLIYGNSDRPSGVPDRFSGSKSGTSASLAITGLQGEDKATYYCQSYDSRLSGPVFGTGTKVTVLG
modifications: scFv linker not given; phage display
[1]
  OD450-630: 1.66
[2]
  OD450-630: 1.44
[5]
  koff: 0.000374 s⁻¹
[4]
  koff: 0.000186 s⁻¹

B4: ME4.A12 scFv phage clone (scFv, V domains shown, part only)
VH: QVQLVESGAEVKKPGSSVKVSCKASGGTFNNYAVSWVRQAPGQGLEWMGRIIPILGIANYAQTFQGRVTITADKSTTTAYMELSSLRSEDTAVYYCARSHWGYAHGAFDIWGQGTMVTVSS
VL: QFVLTQPPSVSGAPGQRVTISCTGSSSNIGAGYDVHWYQQLPGTAPKVLIYGNSDRPSGVPDRFSGSKSGTSASLAITGLQGEDKATYYCQSYDSRLSGPVFGTGTKVTVLG
modifications: scFv linker not given
[5]
  koff: 0.00101 s⁻¹
[4]
  koff: < 1e-07 s⁻¹

B5: ME4.A11 scFv phage clone (scFv, V domains shown, part only)
VH: QVQLVESGAEVKKPGSSVKVSCKASGGTFNNYAVSWVRQAPGQGLEWMGRIIPILGIANYAQTFQGRVTITADKSTTTAYMELSSLRSEDTAVYYCARSRGGYAHGAFDIWGQGTMVTVSS
VL: QFVLTQPPSVSGAPGQRVTISCTGSSSNIGAGYDVHWYQQLPGTAPKVLIYGNSDRPSGVPDRFSGSKSGTSASLAITGLQGEDKATYYCQSYDSRLSGPVFGTGTKVTVLG
modifications: scFv linker not given
[5]
  koff: 0.000486 s⁻¹
[4]
  koff: 7.86e-05 s⁻¹

B6: ME4.A2 scFv phage clone (scFv, V domains shown, part only)
VH: QVQLVESGAEVKKPGSSVKVSCKASGGTFNNYAVSWVRQAPGQGLEWMGRIIPILGIANYAQTFQGRVTITADKSTTTAYMELSSLRSEDTAVYYCARSSRGYAHGAFDIWGQGTMVTVSS
VL: QFVLTQPPSVSGAPGQRVTISCTGSSSNIGAGYDVHWYQQLPGTAPKVLIYGNSDRPSGVPDRFSGSKSGTSASLAITGLQGEDKATYYCQSYDSRLSGPVFGTGTKVTVLG
modifications: scFv linker not given
[5]
  koff: 0.000852 s⁻¹
[4]
  koff: 0.000183 s⁻¹

B7: ME4.B10 scFv phage clone (scFv, V domains shown, part only)
VH: QVQLVESGAEVKKPGSSVKVSCKASGGTFNNYAVSWVRQAPGQGLEWMGRIIPILGIANYAQTFQGRVTITADKSTTTAYMELSSLRSEDTAVYYCARSARGYAHGAFDIWGQGTMVTVSS
VL: QFVLTQPPSVSGAPGQRVTISCTGSSSNIGAGYDVHWYQQLPGTAPKVLIYGNSDRPSGVPDRFSGSKSGTSASLAITGLQGEDKATYYCQSYDSRLSGPVFGTGTKVTVLG
modifications: scFv linker not given
[5]
  koff: 0.000467 s⁻¹
[4]
  koff: 0.00016 s⁻¹

B8: ME4.B12 scFv phage clone (scFv, V domains shown, part only)
VH: QVQLVESGAEVKKPGSSVKVSCKASGGTFNNYAVSWVRQAPGQGLEWMGRIIPILGIANYAQTFQGRVTITADKSTTTAYMELSSLRSEDTAVYYCARSSFGYSVGAFDIWGQGTMVTVSS
VL: QFVLTQPPSVSGAPGQRVTISCTGSSSNIGAGYDVHWYQQLPGTAPKVLIYGNSDRPSGVPDRFSGSKSGTSASLAITGLQGEDKATYYCQSYDSRLSGPVFGTGTKVTVLG
modifications: scFv linker not given
[5]
  koff: 0.000753 s⁻¹
[4]
  koff: 0.000177 s⁻¹

B9: 1G1.D8 scFv phage clone (scFv, part only; not given: scFv linker, part only)
scFv, part: QVQLVESGGGLVQPGRSLRLSCAASGFTFDDYAMHWVRQAPGKGLEWVSGISWNSGSIGYADSVKGRFTISRDNAKNSLYLQMNSLRAEDTAVYYCAKPRDISSWLGMDVWGQGTTVTVSSDIQMTQSPSSVSASVGDRVTITCRASQDISSWLAWYQQKPGKAPKLLIYAASSLQSGVPSRFSGSGSGTDFTLTISSLQPEDSATYYCQQTTNFPYTFGQGTKLEIKR
[4]
  koff: 0.000242 s⁻¹
